The source of these data is patent US20210063414A1, “METHODS FOR PREVENTING AND/OR TREATING BONE LOSS CONDITIONS BY MODULATING IRISIN” (Dana-Farber Cancer Institute, Inc., priority 2018, published 2021).

The target of assay [1] is T1, MLO-Y4 cell surface proteins (Mus musculus, UniProt P62737).
T1 construct: endogenous in cells; host or cells: MLO-Y4
As to the kind of experiment: Crosslinking/co-immunoprecipitation/mass spectrometry (TMT quantitative proteomics) to identify irisin receptors. The assay is classed as binding. The note with it: co-precipitated protein Acta2 (ACTA_MOUSE). Summed up:
(§1)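 Relative protein abundance came from 6-plex TMT MS3 quantitation on an Orbitrap Fusion Lumos, after in-gel trypsin digestion of Coomassie-stained SDS-PAGE lanes. Input was a Ni-NTA pulldown (250 mM imidazole elution) of lysates from murine MLO-Y4 cells. These cells were treated on ice with His-tagged irisin or adipsin (10 nM, 20 min) in serum-free medium, then crosslinked with 1.5 mM DTSSP for 30 min.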

For assay [2], the target named is T2, MLO-Y4 cell surface proteins (Mus musculus, UniProt E9PW83).
T2 construct: endogenous in cells; host or cells: MLO-Y4
T2 sequence (E9PW83 1-1143): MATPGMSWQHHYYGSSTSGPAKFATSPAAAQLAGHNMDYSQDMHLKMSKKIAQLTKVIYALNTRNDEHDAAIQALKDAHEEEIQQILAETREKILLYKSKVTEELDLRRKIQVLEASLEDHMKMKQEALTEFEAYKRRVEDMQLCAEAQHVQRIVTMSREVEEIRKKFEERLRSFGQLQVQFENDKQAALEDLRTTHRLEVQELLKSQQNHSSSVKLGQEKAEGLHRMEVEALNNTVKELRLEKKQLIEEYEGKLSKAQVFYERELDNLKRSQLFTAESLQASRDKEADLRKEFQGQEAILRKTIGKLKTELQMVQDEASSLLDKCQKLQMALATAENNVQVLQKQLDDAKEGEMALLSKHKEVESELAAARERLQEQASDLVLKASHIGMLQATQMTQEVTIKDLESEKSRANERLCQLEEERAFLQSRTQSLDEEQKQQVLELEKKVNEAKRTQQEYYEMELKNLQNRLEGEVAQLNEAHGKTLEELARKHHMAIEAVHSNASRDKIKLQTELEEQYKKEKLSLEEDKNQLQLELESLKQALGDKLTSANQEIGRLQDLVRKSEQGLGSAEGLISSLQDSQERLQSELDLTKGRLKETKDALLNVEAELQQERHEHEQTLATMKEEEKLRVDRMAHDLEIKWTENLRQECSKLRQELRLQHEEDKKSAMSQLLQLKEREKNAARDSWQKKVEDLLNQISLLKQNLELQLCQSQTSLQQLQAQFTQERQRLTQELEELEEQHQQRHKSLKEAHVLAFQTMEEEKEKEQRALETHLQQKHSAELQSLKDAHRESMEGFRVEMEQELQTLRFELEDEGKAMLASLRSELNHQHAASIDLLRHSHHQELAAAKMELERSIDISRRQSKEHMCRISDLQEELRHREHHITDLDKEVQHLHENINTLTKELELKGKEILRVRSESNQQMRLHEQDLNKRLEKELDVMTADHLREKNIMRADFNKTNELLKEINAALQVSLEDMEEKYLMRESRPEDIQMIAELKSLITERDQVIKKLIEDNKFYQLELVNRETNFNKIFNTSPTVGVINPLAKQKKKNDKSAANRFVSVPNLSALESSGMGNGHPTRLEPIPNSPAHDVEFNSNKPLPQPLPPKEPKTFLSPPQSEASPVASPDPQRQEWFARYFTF
Described as above. It counts as binding. The note with it: co-precipitated protein Fam184a (E9PW83_MOUSE). The essentials: as §1

B1: irisin: secreted cleaved form of FNDC5; recombinant human/mouse irisin with C-terminal his tag produced in HEK293 cells (protein)
chain: DSPSAPVNVTVRHLKANSAVVSWDVLEDEVVIGFAISQQKKDVRMLRFIQEVNTTTRSCALWDLEEDTEYIVHVQAISIQGQSPASEPVLFKTPREAEKMASKNKDEVTMKE
modifications: left off: small tags and cut ends
notes: secreted cleaved form of FNDC5; recombinant human/mouse irisin with C-terminal his tag produced in HEK293 cells
Take B1: in assay [1], the TMT signal-to-noise ratio is listed as 107.601 and the “irisin/adipsin TMT signal-to-noise ratio” value came out at 0.298. Besides, in assay [2], the TMT signal-to-noise ratio came out at 8.102 and the “irisin/adipsin TMT signal-to-noise ratio” value came out at 0.009.
